In the nanobody polyreactivity screen of Harvey et al. (2022):

test: yeast display, Sf9 membrane polyspecificity reagent, FACS + sequencing; frameworks hold sequencing errors
Summary of the method: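 A synthetic nanobody library was expressed on Saccharomyces cerevisiae BJ5465 by galactose induction for 36–48 hours. The library was stained for 1 hour at 4 °C with 10% biotinylated, detergent-solubilized Sf9 membrane reagent and enriched with streptavidin microbeads before FACS. Low and high (top ~1%) gates were set on anti-HA fluorescence for expression and streptavidin fluorescence for reagent binding, and each polyreactivity label reflects the gate of origin.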

Sequence | polyreactivity (PSR sort gate)
QVQLVESGGGLVQAGGSLRLSCAASGSPFKRYAMGWYRQAPGKERELVAAISSRGSSTYYADSVKGRFTISRDNAKNTVYLQMNSLKPEDTAVYYCAADRYTFWTVHSDYWGQGTQVTVSS | high polyreactivity
QVQLQERGGGLVQAGGSLRLSCAASGYISHADEKGWYRQAPGKEHELVASISNGGCTNYADSEKGRFTISRDNAKNTLYLQMNSLKSEDTAVYYCAAWTGQVDIHYYWGQGTQVTVSS | low polyreactivity
QVQLQESGGGLVQAGGCLSCTASGTIFGQGDMGWYRQAPGKERELVATINDGASTYYADSVKGRFTISRDKAKNTVYLQKNSLKPDDTAVYYCAVFKDITTYFGYLGQGTQVTVSS | low polyreactivity
QVQLVESGGGLVQAGGSLRLSCAASGSTFAKYAMGWYRQAPGKERELVAVITSGGSTYYADSVKGRFTISRDNAKNTVYLQMNSLKPEDTAVYYCAAAVRAWARRYDYWGQGTQVTVSS | high polyreactivity
QVHLVESGGGLVQAGGSLRLSCAASGRTFPSNVMGWYRQAPGKERELVAGITWRGASTYYADSVKGRFTISRDNAKNTVYLQMNSLKPEDTAVYYCAVRTQYRRYEYWGQGTKVTVSS | high polyreactivity
QVQLVESGGGLVQAGGSLRLSCAASGSTLYPYDMGWYRQAPGKERELVAAIDSGGSTNYADSVKGRFTISRDNAKNTVYLQMNSLKPEDTAVYYCAADASGENDYWGQGTQVTVSS | low polyreactivity
QVQLEESGAGLVQAGCSLRLSCAASGSTLFNNAMGWYRQAPGKERELVAAITFSGASTYYADSVKGRFTISRDNAKNTVYLQMNSLKPEDTAVYYCGADPSFNYIPVYYFDYDYWGQATQVTVSS | low polyreactivity
QVQLVESGGGLVQAGGSLRLSCAASGSTFVPNAMGWYRQSPGKERELVAAISRSAGSTYYADSVKGRFTISRDNAKNTVYLQMNSLKPEDTAVYYCAADSLTYIAYDYWGQGTQVTVSS | high polyreactivity
QVQLVESGGGLVQAGGSLRLSCAASGSIFEGNGMGRYRQAPGKERELVAAITFRSGSTYYADSVKGRFTISRDNAKNTVYLQMNSLKPEDTAVYYCAADEYYQVSAYDYWGQGTQVNVSS | low polyreactivity
QVQLVESGGGLVQAGGSLRLSCAASGGIVRSNAMGWYRQAPGKERELVAAINRSVRTYYADSVKGRFTISRDNEKNTVYLQMNSLKPEDTAVYYCAAQQGVISRGNYWGQGTQVTVSA | low polyreactivity
QVQLVESGGGLVQAGGSLRLSCAASGITFYTYAMGWYRQAPGKERELVAAISTGGSTYYADSVKGRFTISRDNAKNTVYLQMNSLKPEDTAVYYCAARTFSYPRRAYYYWGQGTQVTVSS | high polyreactivity
QVQRVESGGGLVQAGGRLRLSCAASGSIFASYDMGWYRQSRGKERELVARITFNAGSTYYADSVKGRFTISRDNAKNTVYLQMNSLKPEDTAVYYCIADYPWEYDYWGEGTQVTVSS | low polyreactivity
QVQLVESGGGLVQAGGSLRLSCAASGSTFGLYAMGRYRQAPGKERELVAAIRYSDGSTYYADSVKGRFTISRDNAKNTVYLQMNSLKPEDTAVYYCAAEIGTYFHVPTEYDYWGQGTQVTVSS | low polyreactivity
QVQLVESGGGLVQAGGSLRLSCAASGSIFKIYAMGWYRQAPGKERELVAAISRRGSSTSYADSVKGRFTISRDNAKNTVYLQMNSLKPEDTAVYYCAARYISNPMDYWGQGTQVTVSS | high polyreactivity
QVQLVESGGGLVQAGGSLRLSCAASGYTFESYTMGWYRQAPGKEREFVAVISSSDTSTSYADSVKGRFTISRDNAKNTFYLQMNSLKPVDTAVYYCAAYSSPYYITYYWYNYDYWGQGTQVTVSS | low polyreactivity
QVQLVESGGGLVQAGGSLRLSCAASGSTFRDYDMGWYRQAPGKERELVAAISLSGGRTHYADSVKGRFTISRDNAKNTVYLQMNSLKPEDTAVYYCAARNTGPVQYYYWGQGTQVTVSS | low polyreactivity
QVQLVESGVGLVQAGGSLRLSCAASGNTISYNAMGWSRQAPGKERELVAAIRWSGGSTNYADSVKGRFTISRDNAKNTVYLQMNSLKPEDTAVYYCNARYASTNYGWISYYWGQGNQVTVSS | high polyreactivity
QVQLVESGGGLVQAGGSLRLSCAASGYTFGSYAMGWYRQAPGTERELVAAIRGSGGSTYYADSVKGRFTISRDNAKNTVYLQLNSLKPEDTAVYYGATSVRRGGRQLYNYWGQGTQVTVSS | high polyreactivity
QVHLVESGGGLVQAGGSLRLSCAASGSTFDTYAMGWYRQAPGKERELVAAISYRGGNTYYADSVKGRFTISRDNAKNTVYLQMNSLKPEDTAVYYCNAGVSIGRSRRYDYWGQGTQVTVSS | low polyreactivity
QVQHVESGGGLVQAGGSLRLSCAASGLTFKANAMGWYRQAPGKERELVAAITWSGTSTYYADSVKGRFTISRDNAKNTVYLQMNRLKPEDTAVYYCNKPYDVWYHDYDYWGQGTQVTVSS | low polyreactivity
QVQLVESGGGLVQAGGSLRLSCAASVRIFQYYVMGWYIQAPGKERELVAAITSGGGTKYADSVKGRFTISRDNAKNTVYLQMNSLIPEDTAVYFCAAAWFDQYSRYDYWGQGTQVTVSS | low polyreactivity

Sequence | polyreactivity (PSR sort gate)
QVQLVESGGGLVQAGGSLRLSCAASGSTIYWYAMGWYRQAPGKERELVAAISLSGGSTYYADSVKGRFTFSRDNAKNTVYLQMNSLKPEDTAVYYCAARTSYYVYRHPSGRYDYWGQGTQVTVSS | low polyreactivity
QVQLVESGGGLVQAGGSLRLSCAASGFTFKYNAMGWYRQAPGKERELVASISSGSTNYADSVKGRFTISRDNAKNTVYLQMNSLKPEDTAVYYCSASVSRGKRFRYGYVFKMDYWGQGTQVTVSS | low polyreactivity
QVQLVESGGGLVQAGGSLRLSCAASGSIIYYYAMGWYRQAPGKERELVAAISASGGRTYYADSVKGRFTISRDNAKNTVYLQMNSLKPEDTAVYYCAKRGTLGSYYYWGQGTQVTVSS | high polyreactivity
QVQLVESGGGLVQAGGSLRLSCAASGRTFYQYAMGWYRQAPGKERELVAAISWSDGSTSYADSVKGRFTISRDNAKNTVYLQMNSLKQEDTAVYYCAKDWTGTKAIEYDYWGQGTQVTVSS | low polyreactivity
QVQLVESGGGLVQAAGSLRLSCAASGITFGLYTMGWYRQAPGKERELVAAISWSGGGTYYADSVKGRFTISRDNAKNTVYLQMNSLKPEDTAVYYCAAPVRGSYPYSVGVDYWGQGTQVTVSS | high polyreactivity
QVQLVESGGGLVQAGGSLRLSCAASGSILFYAMGWYRQAHGKERELVAAITWRGGSTFYADSVKGRFTISRDNAKNTVYLQMNSLKPDDTAVYYCAASYYRYGHRSRGRYYYWGQGTQVTVSS | high polyreactivity
QVQLVESGGGLVQAGGSLRLSCAASGSINYYAMGWYRQAPVKERELVAAITRSGGGTYYADSVKGRFTISRDNAMNTVYLQMNSLIPEDTAVYYCAAARYSRAQPNWTYNYWGQGTQVTVSS | high polyreactivity
QFQLVESGGGLVQAGGSLRLSCAASGRTFIYYSMGWYRQAPGKERELVAAITRSGGSTNYADSVKGRFTISRDNSKNTVYIQMNSLKPEDTAVYYCAARFYGRRCIYGYWGQGTQVTVSS | high polyreactivity
QVQLVESGGGLVQAGGSLRLSCAASGRIFPGNTMGWYRQAPGKERELVAAITRGGSTSYADSVKGRFTISRDNAKNTVYLQMNSLKPEDTAVYYCATRTHGEGTRRDSWGQGTQVTVSS | low polyreactivity
QVQLVESGGGLVQAGGSLRLSCAASGIIFYDYAMGWYRQAPGKERELVAAISKRGGSTYYADSVKGRFTISRDNAKNTVYLQMNSLKPEDTAVYYCAAKYYRYGDPDRYDYWGQGTQVTVSS | high polyreactivity
QVQLVESGGGLVQAGGSLRLSCAASVPTFPFNAMGWYRQAPGKERELVAAISWRDGRTYYADSVKGRFTISRDNAKNTVYLQMNSLKPEDTAVYYCNVVKRRSDWGMDYWGQGTKVTVSS | high polyreactivity
QVQLVESGGGLVQAGGSLRLSCAASGIILDHYAMGWYRQAPGKERELVAAISSGTRTNYADSVKGRFTISRDNAKNTVYLQMNSLKPEDTAVYYCAATIYRRYRSKSSITSYWGQGTQVTVSS | high polyreactivity
QVQLVESGGGLVQAGGSLRLSCAASGSIFLRYAMGWYRQAPGKERELVATITSGGRTKYADSVKGRFTISRDNAKNTVYLQMNSLKPEDTAVYYCNAKTQSLKRSTFNYWGQGTQVTVSS | low polyreactivity
QVQLVESGGGLVQAGGSLRLSCAASGFTFYKYVMGWYRQAPGKERELVAAITQGGGSTYYADSVKGRFTISRDNAKNTVYLQMNSLKPEDTAVYYCAAVTRGSRGVNFGYWGQGTQVTVSS | high polyreactivity
QVQLVESGGGLVQAGGSLRLSCAASGIIFKYYSKGWYRQAPGKERELVAAITSGGSTNYADSVKGRFTISRDNAKNTVYLQMNSLKPEDTAVYYCAKRFYYRNRFDYWGQGTQETVSS | low polyreactivity
QVQLVESGGGLVQAGGSLRLSCAASGSILLGYAMGWYRQAPGKERELVAAITFRGGSTYYADSVKGRFTISRDNAKNTVYLQMNSLKPEATAVYYCAKVWWLYSSTYLRYYWGQGTQVTVSS | low polyreactivity
QVQLVESGGGLVQARGSLRLSCAASGRTFFENAMGWYRQAPGKERELVATITTTGGSTYYADSVKGRFTISRDNAKNTVYLQMNSLKPEYTAVYYCATRGWYLGSRGYRNRYGYWGQGTQVTVSS | high polyreactivity
QVQLVESGGGLVQAGGSLRLSCAASGRTFEDYTMGWYRQAPGKERELVAAITGGGSTNYADSVKGRFTISRDNAKNTVYLQMNSLKPEDTAVYYCAARRKGGHISYGYDYWGQGTQVTVSS | high polyreactivity
QVQLVESGGGLVQAGGSLRLSCAASGIIFRGYAMGWYRQAPGKERELVARISITGGRTYYADSVKGRFTISRDNAKNTVYLQMNSLKPEDTAVYYCAAGKYVRTVRYDYWGQGTQVTVSS | high polyreactivity
QVQLVESGGGLFHAGGSLRLSCAASGSTFAYYAMGWYIQAPGKERELVAGISGSGGSTYYADSVKGRFTISRDNAKNTVYLQMKSLKPEDNAVYYCAVVQRSKRTYPWYDYWGQGTQVTVCS | low polyreactivity
